Measured values taken from patent US12383631 (BRIGHT PEAK THERAPEUTICS, dated 2025).
Changes are numbered by the printed parent chain. Names may count otherwise.

T1: IL-18 receptor (IL-18Rα/IL-18Rβ) on cells (HEK-Blue IL18R reporter cells, NK-92, KG-1) (human, UniProt Q13478 19-541; O95256 20-599)
T1 sequence (looked up) 1: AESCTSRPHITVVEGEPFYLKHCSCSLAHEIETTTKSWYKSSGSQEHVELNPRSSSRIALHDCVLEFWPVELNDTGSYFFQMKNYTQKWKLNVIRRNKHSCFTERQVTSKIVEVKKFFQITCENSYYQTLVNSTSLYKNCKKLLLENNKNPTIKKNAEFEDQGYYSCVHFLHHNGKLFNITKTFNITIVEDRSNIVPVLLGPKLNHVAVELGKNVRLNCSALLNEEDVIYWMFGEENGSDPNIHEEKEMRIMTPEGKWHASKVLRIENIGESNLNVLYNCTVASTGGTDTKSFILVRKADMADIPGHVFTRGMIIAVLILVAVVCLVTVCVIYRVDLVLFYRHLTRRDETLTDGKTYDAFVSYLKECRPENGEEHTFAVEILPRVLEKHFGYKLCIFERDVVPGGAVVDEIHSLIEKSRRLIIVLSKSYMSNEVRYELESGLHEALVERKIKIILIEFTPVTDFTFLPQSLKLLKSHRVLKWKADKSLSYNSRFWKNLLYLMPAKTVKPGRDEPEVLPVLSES
T1 sequence (looked up) 2: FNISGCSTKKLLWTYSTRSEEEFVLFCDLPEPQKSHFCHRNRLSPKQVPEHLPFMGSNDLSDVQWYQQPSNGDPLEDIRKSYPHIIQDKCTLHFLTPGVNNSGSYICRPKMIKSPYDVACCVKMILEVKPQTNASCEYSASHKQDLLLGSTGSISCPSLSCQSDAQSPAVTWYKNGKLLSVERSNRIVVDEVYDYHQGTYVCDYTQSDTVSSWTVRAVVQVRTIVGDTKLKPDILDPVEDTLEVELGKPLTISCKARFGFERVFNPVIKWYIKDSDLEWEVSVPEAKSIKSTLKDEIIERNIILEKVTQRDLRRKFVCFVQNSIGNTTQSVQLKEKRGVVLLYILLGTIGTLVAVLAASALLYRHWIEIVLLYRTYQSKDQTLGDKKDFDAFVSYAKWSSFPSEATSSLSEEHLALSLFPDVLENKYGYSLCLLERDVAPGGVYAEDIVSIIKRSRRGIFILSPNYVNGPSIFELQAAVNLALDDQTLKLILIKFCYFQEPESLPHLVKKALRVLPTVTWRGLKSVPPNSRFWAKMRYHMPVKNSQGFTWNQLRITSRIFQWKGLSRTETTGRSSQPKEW

T2: human IL-18BP-His (human, UniProt O95998 31-194, limits assumed)
T2 construct: also called His-tagged human IL-18BP; not shown: His tag
T2 sequence (looked up): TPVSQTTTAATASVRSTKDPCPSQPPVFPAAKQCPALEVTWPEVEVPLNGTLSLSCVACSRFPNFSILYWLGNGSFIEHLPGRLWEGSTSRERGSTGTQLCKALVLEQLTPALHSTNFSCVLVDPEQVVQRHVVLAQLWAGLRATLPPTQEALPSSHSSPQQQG

B1: IL-18 polypeptide C142 (ligand)
chain: MFGKLKSKLSIIRNLNDQVLFIDQGNRPLFEDMTDSDARDNAPRTIFIISMYADSQPRGMAVAISVKCEKISTLSAENKIISFKEMNPPDNIKDTKSDIIFFQRSVPGHDNKMQFESSSYEGYFLAAEKERDLFKLILKKEDELGDRSIMFTVQNED
notes: also called Y1M, E6K, V11I, C38A, K53A, T63A, C76A, C127A
B2: IL-18 polypeptide C143 (ligand)
chain: B1 chain with M1Y, K6E, A63T
notes: also called V11I, C38A, K53A, C76A, C127A
B3: IL-18 polypeptide C144 (ligand)
chain: B1 chain with M1Y, K6E
notes: also called V11I, C38A, K53A, T63A, C76A, C127A
B4: IL-18 polypeptide C145 (ligand)
chain: B1 chain with M1Y, K6E, S55A, A63T
notes: also called V11I, C38A, K53A, S55A, C76A, C127A
B5: IL-18 polypeptide C146 (SEQ ID NO: 68) (ligand)
chain: B1 chain with M1Y, K6E, M51G, A63T
notes: also called V11I, C38A, M51G, K53A, C76A, C127A
B6: IL-18 polypeptide C147 (ligand)
chain: B1 chain with M1Y, K6E, D54A, A63T
notes: also called V11I, C38A, K53A, D54A, C76A, C127A
B7: IL-18 polypeptide C148 (ligand)
chain: B1 chain with M1Y, F2A, K6E, A63T
notes: also called F2A, V11I, C38A, K53A, C76A, C127A
B8: IL-18 polypeptide C149 (ligand)
chain: B1 chain with M1Y, K6E, E31A, A63T
notes: also called V11I, E31A, C38A, K53A, C76A, C127A
B9: IL-18 polypeptide C174 (ligand)
chain: B1 chain with M1Y, K8L
notes: also called K8L, E6K, V11I, C38A, K53A, T63A, C76A, C127A
B10: IL-18 polypeptide C176 (ligand)
chain: B1 chain with M1Y, I49M
notes: also called E6K, V11I, C38A, I49M, K53A, T63A, C76A, C127A
B11: IL-18 polypeptide C177 (ligand)
chain: B1 chain with M1Y, I49R
B12: IL-18 polypeptide C178 (ligand)
chain: B1 chain with M1Y, Q103R
B13: IL-18 polypeptide C179 (ligand)
chain: B1 chain with M1Y, K8E, Q103R
B14: IL-18 polypeptide C181 (ligand)
chain: B1 chain with M1Y, V153E
B15: IL-18 polypeptide C182 (ligand)
chain: B1 chain with M1Y, V153Y
B16: IL-18 polypeptide C183 (SEQ ID NO: 69) (ligand)
chain: B1 chain with M1Y, M51G
B17: IL-18 polypeptide C184 (ligand)
chain: B1 chain with M1Y, K6R
notes: also called E6R, V11I, C38A, K53A, T63A, C76A, C127A
B18: IL-18 polypeptide of SEQ ID NO: 34 (E06K, K53A, S55A) (ligand)
chain: B1 chain with M1Y, I11V, A38C, S55A, A63T, A76C, A127C
B19: IL-18 polypeptide of SEQ ID NO: 56 (E6K, K53A, C38S, C76S, C127S) (ligand)
chain: B1 chain with M1Y, I11V, A38S, A63T, A76S, A127S
B20: IL-18 polypeptide C140 (SEQ ID NO: 72) (ligand)
chain: GGGGYFGKLKSKLSIIRNLNDQVLFIDQGNRPLFEDMTDSDARDNAPRTIFIISMYADSQPRGMAVAISVKCEKISTLSAENKIISFKEMNPPDNIKDTKSDIIFFQRSVPGHDNKMQFESSSYEGYFLAAEKERDLFKLILKKEDELGDRSIMFTVQNED
B21: IL-18 polypeptide C141 (SEQ ID NO: 71) (ligand)
chain: GYFGKLKSKLSIIRNLNDQVLFIDQGNRPLFEDMTDSDARDNAPRTIFIISMYADSQPRGMAVAISVKCEKISTLSAENKIISFKEMNPPDNIKDTKSDIIFFQRSVPGHDNKMQFESSSYEGYFLAAEKERDLFKLILKKEDELGDRSIMFTVQNED
B22: IL-18 polypeptide C192 (SEQ ID NO: 70) (ligand)
chain: B21 chain with M52G
B23: IL-18 polypeptide of SEQ ID NO: 35 (Y01G, F02A, E06K, M51G, K53A, D54A, S55A, T63A) (ligand)
chain: B1 chain with M1G, F2A, I11V, A38C, M51G, D54A, S55A, A76C, A127C
B24: IL-18 polypeptide of SEQ ID NO: 44 (E06K, K53A, S55A, F02A) (ligand)
chain: B1 chain with M1Y, F2A, I11V, A38C, S55A, A63T, A76C, A127C
B25: IL-18 polypeptide of SEQ ID NO: 45 (E06K, K53A, S55A, D54A) (ligand)
chain: B1 chain with M1Y, I11V, A38C, D54A, S55A, A63T, A76C, A127C
B26: IL-18 polypeptide of SEQ ID NO: 46 (E06K, K53A, S55A, M51G) (ligand)
chain: B1 chain with M1Y, I11V, A38C, M51G, S55A, A63T, A76C, A127C
B27: IL-18 polypeptide of SEQ ID NO: 47 (C38S, C68S, C76S, C127S) (ligand)
chain: B1 chain with M1Y, K6E, I11V, A38S, A53K, A63T, C68S, A76S, A127S
B28: IL-18 polypeptide of SEQ ID NO: 48 (C38S, C68S, C76S, C127S, K70C) (ligand)
chain: B1 chain with M1Y, K6E, I11V, A38S, A53K, A63T, C68S, K70C, A76S, A127S
B29: IL-18 polypeptide of SEQ ID NO: 49 (E06K, K53A, S55A, C38S, C68S, C76S, C127S, K70C) (ligand)
chain: B1 chain with M1Y, I11V, A38S, S55A, A63T, C68S, K70C, A76S, A127S
B30: IL-18 polypeptide of SEQ ID NO: 55 (K53A, T63A, C38S, C68S, C76S, C127S, K70C) (ligand)
chain: B1 chain with M1Y, K6E, I11V, A38S, C68S, K70C, A76S, A127S
B31: IL-18 polypeptide of SEQ ID NO: 43 (E06K, K53A, S55A, Y01G) (ligand)
chain: B1 chain with M1G, I11V, A38C, S55A, A63T, A76C, A127C
B32: IL-18 polypeptide of SEQ ID NO: 6 (E6K, V11I, C38A, K53A, T63A, C68A, C76A, D98C, C127A) (ligand)
chain: B1 chain with M1Y, C68A, D98C
B33: IL-18 polypeptide of SEQ ID NO: 5 (E6K, V11I, C38A, K53A, T63A, C68A, C76A, M86C, C127A) (ligand)
chain: B1 chain with M1Y, C68A, M86C
B34: IL-18 polypeptide of SEQ ID NO: 9 (E6K, C38A, K53A, C68A, D98C) (ligand)
chain: B1 chain with M1Y, I11V, A63T, C68A, A76C, D98C, A127C
B35: IL-18 polypeptide of SEQ ID NO: 4 (E6K, C38A, K53A, C68A, M86C) (ligand)
chain: B1 chain with M1Y, I11V, A63T, C68A, A76C, M86C, A127C

What follows are binders tested against T1, IL-18 receptor (IL-18Rα/IL-18Rβ) on … (assay: cell-based or functional assay).

Point of comparison: B8, “EC50, HEK-Blue IL18R reporter cells” value 6.6 pM. Against it:
- B1 — 330-fold lower, 0.02 pM
- B2 — 6.7-fold lower, 0.98 pM
- B3 — 39-fold lower, 0.17 pM
- B4 — 1.8-fold lower, 3.63 pM
- B5 — 8.2-fold lower, 0.8 pM
- B6 — 6.6-fold lower, 1 pM
- B7 — within 1.5-fold, 7.28 pM
- B9 — 23-fold lower, 0.29 pM
- B10 — 94-fold lower, 0.07 pM
- B11 — 160-fold lower, 0.04 pM
- B12 — 25-fold lower, 0.26 pM
- B13 — 16-fold lower, 0.4 pM
- B14 — 66-fold lower, 0.1 pM
- B15 — 82-fold lower, 0.08 pM
- B16 — 66-fold lower, 0.1 pM
- B17 — 160-fold lower, 0.04 pM
- B18 — 41-fold higher, 272 pM
- B19 — 1.8-fold lower, 3.73 pM
- B20 — 2.6-fold lower, 2.5 pM
- B21 — 3.9-fold lower, 1.68 pM
- B22 — 2.1-fold higher, 14 pM

Target: T1, IL-18 receptor (IL-18Rα/IL-18Rβ) on …
Test: cell-based or functional assay
Remark: another data set of the same source

Point of comparison: B30, “EC50, IFNγ stimulation, NK92 cells” value 17.2 nM. Against it:
- B2 — 120-fold lower, 0.138 nM
- B3 — 1400-fold lower, 0.012 nM
- B4 — 200-fold lower, 0.087 nM
- B5 — 460-fold lower, 0.037 nM
- B6 — 220-fold lower, 0.079 nM
- B7 — 67-fold lower, 0.256 nM
- B8 — 92-fold lower, 0.187 nM
- B18 — 21-fold lower, 0.824 nM
- B23 — higher, > 55 nM
- B24 — higher, > 1000 nM
- B25 — 1.7-fold higher, 30 nM
- B26 — 2.3-fold lower, 7.4 nM
- B27 — 150-fold lower, 0.115 nM
- B28 — 35-fold lower, 0.488 nM
- B29 — 3.4-fold higher, 58.5 nM
- B31 — 2.8-fold lower, 6.12 nM
- B32 — 13-fold lower, 1.37 nM
- B33 — 230-fold lower, 0.075 nM
- B34 — 250-fold lower, 0.069 nM
- B35 — 780-fold lower, 0.022 nM

These binders were tested against T2, human IL-18BP-His (assay: AlphaLISA of free IL-18BP).
Procedure: The plate is incubated further for 1 hr at room temperature. Under subdued light, 12.5 µL of 2× streptavidin (SA) donor beads are pipetted into each well, and the wells are incubated with shaking for an additional 30 min at room temperature. The AlphaLisa signal is then measured on an Enspire plate reader with 680 and 615 nm as excitation and emission wavelengths, respectively. The dissociation constant (K_D) is calculated based on a variable slope, four parameter analysis using GraphPad PRISM software.

Point of comparison: B1, Kd 2.25 nM. Against it:
- B2 — 3.9-fold higher, 8.86 nM
- B3 — 3.4-fold lower, 0.66 nM
- B4 — 4.3-fold higher, 9.74 nM
- B5 — 170-fold higher, 373 nM
- B6 — 11-fold higher, 25.8 nM
- B7 — 25-fold higher, 57.2 nM
- B8 — 3.5-fold lower, 0.64 nM
- B9 — 16-fold lower, 0.14 nM
- B10 — 11-fold higher, 25.8 nM
- B17 — 2.4-fold higher, 5.46 nM
- B27 — 75-fold lower, 0.03 nM
- B28 — 11-fold lower, 0.21 nM
- B30 — 410-fold higher, 913 nM
- B19 — 190-fold higher, 436 nM
